Laboratory results: the DeepSol protein solubility set

assay: soluble on expression in E. coli; label from the status in PepcDB or PDB records

Soluble on expression in E. coli, not soluble:
MGSDKIHHHHHHMKRARAATNLPETRQPRSAHFAQAGQRWSDDVDASTTGVSKHDMCFAVASRESVRPYVLPRNKNDMADAEAICEAVTRPNMRFVAVKTAAQQSVLMLHRCRALLVRQRTMLANAIRAHLAEFGIVMPQGIRTLLTALIAPKDEVNDLPHLVRVALAPMAANLIELGQRIKGLEIEIAREHRGNETSRRLETIPGFGVMTSTAMAATVADPTAFKSGREFAAWLGLTPRESSSGGKQRLGGITKMGDGYLRTLLVVGATAVIRFAREEGSAKTAWIRKLMEKKPAKVVAVALANKMARIAWPLMTRGEVYRVIPA
MGSDKIHHHHHHMKRGLNLDQWVTWPGEDQWGDAKTILPYPEWRKFLGDDDLRALKGAGFDFLRMPVDPSPFLSDQTAALRDDLYASVLDSVRMINRAGLKVIVDMHLIPAGGSRKIGMAQVMDDPRTFDRYLDMVRKMARTLAGEDPEKVAFEPMNEPIVDCDSDGTSLWPDRQRELFAAARSSATKLTLVLTGACYSAASSLEKIDPKAISDDNVIWTFHSYDPFLLTHQGATWAGDFIPYVTGLPYPLNAVPKAQLDATLDIIRARIKAEAPWTRQSGLLAYLDEQVASMDSPDKLLGLMDAPFKKVEAWAKANGVKPENITLGEFGMIRQEYGNAYVMPAQYRAAYVRDMIARAEAHGFSWSVWSYGGAFGIVDAFNGDKGEPDVMDVIRSLH
MGSDKIHHHHHHMKRKITPELSSKDWKEFCSRFHFDNDKLPLIRAIYTAMLPLVDAFAYYSIKQDLPGVSLAHYAYGLVTLGNGVDELSELYLNHEQLEEAYIADCLSLMLLSNAYEQFAKAVEEESSLYAIELSFLGDEYPLELLPEIFEHVSPDGIHLTGSNMLKPLKTAALIIKLDSQKRKNIKELCNTCANCKNLSCPSRKAPGPKLPHTYGAMQIFNIRH
MGSDKIHHHHHHMKRPPKKPATDRSFVVALSRGLEVLRAFGPNDGLLGNQELAARTKLPKPTISRLTYTLTKLGYLTQVPRFEKYQLAPAAMSLGYAALANLGVRHLSQPYRDELMQQTGGAVAVGARDRISMIYVGQARSSLTVGVQLDVGSRIPIATTAMGRAYLCALQSEERAVLMKEMREYYGSRWPRIKEGIERSEEMVAKHGFAISVGEWQDDVHAAGVALTLNDGTGPYAFNCGAPAFRFTEERLINDIGPRLVAMVRKIEAALGGVAAPQPRKSDNKRTKGGKVARVVEGIR
MGSDKIHHHHHHMKSFVIEDEFWSLFPNAKIGVVICHSIDNSIKDENQYKDMISNSEEEALSYLKNEEFSSNEVIKVWREAFQKFKTKKGARSSIEALLKRVHKGNHIGTINPLVDIYNSISLRYAMPCGGEDIDAFAGDIRLTKAVGNESFVTLGTDKNEPPYEGEIVYKDNEGAICRCFNWRESVRTMLTENTKNAFLCIELIDETRVKEFEDALDTLAKTVQDNLGGNCKISTLDINNKSVVID
MGSDKIHHHHHHMKSHIGLIGLAVMGQNLALNIARKGYKVSVYNRTAQRTEEFVKNRVTNEEIEPHYDIESFVKSLERPRKIILMVKAGKPVDDTISQLLPHLEPGDLIIDGGNSHYMDTERRFKELSEKGILFLGMGVSGGEYGALHGPSLMPGGSREAYNLVEEILLEIAAKTEDGPCCTYVGERSAGHFVKMVHNGIEYAIMQAIAEVYHIMRDVLSLSSEEMSSIFEEWNRGELSSFLVEITYKILRKKDEETGKPMVDVILDKAEQKGTGKWTSQAALDLGIPTPSINLAVVERVISHFKDIRTRLSKLYNKRRSATQGSEEFLRDLRNSLFFAMFMAFSQGMWLIAEASKEFGYGVSLSEVLRIWKGGCIIRAKLIDTLRRYISNENAYLLENEEVMNLLKGKIDSLKNILKASIENEIPVPVLSSSYNYFMSLTEERLPANLIQAQRDFFGAHTFERVDREGVFHINWEEGEIG
MGSDKIHHHHHHMKSIIHSTENNNFYLYDTQRILSMLIHPELKKIHEKSTDINIDAYYLKKYSYLVNHGFFGEAKPFEFKANISENSIKENITQTKVIVFEITDYCNLKCKYCSLGDLYNFSKKESKNINIKYALNFLRYIFNVKHKKTKLTISFFGGEPLVNFPAIQQIIEEAKLLNKNKKLDLMFNMTTNATLIHKYIDFIVENNIELLISFDGNEKAHSYRTYASNNKNSFHDVLMNTDMIKLKHPSYFDKYVNFNAVLNNRNSIKGIYEFIYNRYGKIPRISQLSSDHINLNKKNIFDDIFHSRKISEKEFQKEGSDVLPIVSNRLIPFNESKKFLKHYSLNLYLSNTLYLLYDLIDSFPTGTCLPFQTRIFLNTHNNLLPCEKVSYKNFLGKVNDHVFINIPEIVQRYNSYYVHCKKVCQYCYGGRACSTCLLSLDNLDQLGVEEFVCPDFQNQKTFEDKLNRIFSYLEKCPSEFFQIINHLITE
MGSDKIHHHHHHMKTFLVCALEPSANLHLKEVLKAYKKDFGEFELHGIYDESLCKEFDLNSKPLYSSHEFSAMGFIEVLPLIFKAKKAIKELANLSFTQKINGILCIDSPAFNIPFAKALKKAGSKIPRIYYILPQVWAWKKGRIPIIESHFDILASILPFDNQFFNKSTYIGHPLLDEIKEFKNQEDINHTFSKKDDEKTIAFLPGSRRSEIRRLMPIFKELSQKFKGKKILCVPSFNLEKLEVYGDISEFKIESNTPKVLKKADFAFICSGTATLEAALVGTPFVLAYKAKAIDIFIAKLFVKLKHIGLANIFCDFAGKEALNPEFLQDKVNVLNLYEAYNKYDYKAFFAKVDFLKEYLQFGSAKNLAKILNEI
MGSDKIHHHHHHMKTVRIETFGCKVNQYESEYMAEQLEKAGYVVLPDGNAAYYIVNSCAVTKEVEKKVKRLIKSIRNRNKNAKIILTGCFAQLSPDEAKNLPVDMVLGIDEKKHIVDHINSLNGKQQVVVSEPGRPVYEKVKGSFEDRTRSYIKVEDGCDNTCTYCAIRLARGTRIRSKPLEIFKEEFAEMVMKGYKEIVITGVNLGKYGKDMGSSLAELLKVIEKVPGDYRVRLSSINVEDVNDEIVKAFKRNPRLCPHLHISVQSGSDDVLKRMGRKYKISDFMRVVDKLRSIDPDFSITTDIIVGFPGETDADFQRTLELVEKVEFSRVHIFRFSPRPGTPASRMEGGVPESKKKERLDVLKEKAKDVSIRYRKRIIGKERKVLAEWYVMKGVLSGYDEYYVKHEFVGNRVGEFHSVRVKSLSEEGVISCRADMVEGKVPARG
MGSDKIHHHHHHMKVLLTRPEGRNQQMADALTQLGIGYHLCPLLEITPSNTPPKASFFSADKLVFISANAVYFAANNLNNHFPMHCEYFAVGEATQMALAEYQVVSQSAPSSQQDSEGLLSLSQLQDVELQKITIVRGEGGRETLAQTLSERGANVDYWQVYQRSKPALDPKSVCQQWQDLGIDTLVLTSGEALANLMELVPKELFAWLRSCHMIVPSHRVQVQAISQGFHRVSNANGASTQAILTALAL
MGSDKIHHHHHHMKVLQYFENPGLISRSGIGHAQRLQQEELSYTDIVLDTSPFSKDYDLIDVNTYGPKSLAMVAKARLQNRKVVYHAHSTYEDFRNSFIGSNFLSKPFKKHLIKAYRQADLIITPTPYAKSLLRSYGLKQPIVPISNGVRVSSYRRNKSKIIKFRQFLNLKENDKRKIIISVGLYFQRKGIMDFVELARRNPEHLFVWFGYTDLRIIPKKIRETVKKDHPDNCVFAGYITGDVLQGAYSGADLFLYPSYEETEGIVVLEALASSQKVLVRDIPVYNDWLHDGFDCYKASNLDEFDKRLNEILAGKVKNVSKAGHEVALKRDVSLIGPQLKKAYEEALSLPSQESR
MGSDKIHHHHHHMKVNTALGILAGKSSQFILKKLGRGTTLPGKIALKFDKHILDSLAKDYEVVVITGTNGKTLTTALTVGILQEAFGEITTNTSGANMITGITATFLSAKKNKKGKKIAVLEIDEASLARVTDFIKPSLIVFTNIFRDQMDRYGEIYTTYQMILDGAAKAPQATILANGDSPLFNSTNVINPVKYYGFATEEHEPRLAHYNTEGVLCPHCHQIIQYKLNTYANLGSYICNNCGFCRPELDYKLTDLKEITNTSSTFAIDGQDYKINIGGLYNIYNALAAVSVAAFFGVTPEKIKAGFDKSKAVFGRQETFKLGDKDCTLVLIKNPVGATQAIEMMKLAPYDFSLSVLLNANYADGIDTSWIWDADFEQITQMDIPQVFAGGVRSSEIARRLRVTGYPENQITETPKLEDIMALIEQSSSQHAYILATYTAMLEFRDLLAQRQAVGKEMK
MGSDKIHHHHHHMKVVKFGGSSLATGNNVNKALNIIKNDSSRQVIVVSAPGKRTDDDIKVTDLLITYAYTSLRSNNYDDTVEKIFRRYELIAQYFDLPESDLTKIKRLLLTLPTYDYPNADYRMATFKAHGERLNAILIAKILNHQGIKTRYLEPKDVGLIVTGTPNNAEVNPETYVNLKRINLKNNEKIIFPGFYGITPSGHIATFSRGGSDITGAILARGFDAELYENFTDVDAIFSANPNIVTNPAPIKKMTYQEMRELSYAGFSVFHDEALIPAIQGEIPVNVKNTNDPEKPGTLIVPEDGFIPKHTITGIAGGKNFAALYLRKYMLNKGAGFTLKLMEIFDRHHVSYEHMPSGIDDLTIIFKKDALSDQLIDVICNEIQTSLNPDQMQWIDDYAITMVVGEGMKDKLTLCASILYPLGEKNISIQMINQGASQISIMIGTRRQDEEEVIKTIYQNFIENR
MGSDKIHHHHHHMKWEEKRDMVKIATWYYHYGWTQAQIAKKIGISRSIISKTLQRAKDLGIVEIFIKDETYYTVDLEQKLEEKFGLEEAIVVATHDMSEEEALNFLAKEAAYTLSKRIAKVKTLGISWGKTIRKFANEFPFIPHKDLTIIPLIGGMGSSDIDLHSNQICYDLKKKMKCHSKYLYAPALVEDTEMKTDLSKNKYISEVLEEGKTVDMAIVGVSSPYNHSTMEEIGYINSEDIEELRYKDVVGDINSRFFTADGKEAKTEINTHVIGLSLEELKNIPTVVALANGLQKKEALVAALNAGLIDVIVITDRMAEYILQKND
MGSDKIHHHHHHMKYYFAPLEGITGYIYRNAYEKFFGGIDKYFTPFIVPTSSKSLTSRELKDVLPENNKVTFLVPQILTNDANKFIFTTEKLMNLGYSEVNLNLGCPSGTVVSKGRGAGFLKKRQELDEFLEKIFSKSPAKISIKTRIGKDSPDEFYELIKIFNKYPLEELIIHPRIQTDFYNNKPNMKVFKDALELSKSTVCYNGDIFQSNDYIKLIEEFSNLGVVMLGRGIISNPNIIKKINSNNVLEKEVLKKFHDAIYEEYQDILSGEKNVLFKMKEIWFYMIHLFKDSDKFAKKIRKANRLRDYEAIISALFGEFDLI
MGSDKIHHHHHHMLDQAERLRNMALKKNAGEEIKRPVIITVTSGKGGVGKSNFVVNLSITLQQMNKKVLIFDADVGMGNDDILLGCISKYSVFDVIYNNMKIEDAIVEGPFGVKLLPGGSGITKFKDITEDQINAFVKKLASIGNFDYIIMDTGAGVNRSVLGFISCCEELIILTTPEPTSLTDAYSLFKAVVHFKIKSYAKVVINRVVDNKEGLETYKKFQSVAKKFLKADTEFLGSISEDSRIVKAVRNQTPFVVENPNCYAAKDIQYIANKLMGTTTKDNGLGIEGLFKKLFKIFS
MGSDKIHHHHHHMLEHKIDFMVTLEVKEANANGDPLNGNMPRTDAKGYGVMSDVSIKRKIRNRLQDMGKSIFVQANERIEDDFRSLEKRFSQHFTAKTPDKEIEEKANALWFDVRAFGQVFTYLKKSIGVRGPVSISMAKSLEPIVISSLQITRSTNGMEAKNNSGRSSDTMGTKHFVDYGVYVLKGSINAYFAEKTGFSQEDAEAIKEVLVSLFENDASSARPEGSMRVCEVFWFTHSSKLGNVSSARVFDLLEYHQSIEEKSTYDAYQIHLNQEKLAKYEAKGLTLEILEGL
